Experimental findings from PMC10441363 (bioRxiv, 2023) are described below.

The assay has as its target hemagglutinin (HA) of A/WSN/1933 (H1N1) (Influenza A virus A/WSN/1933 (H1N1), UniProt I4EPC4). Briefly: virus aggregation by fluorescence microscopy.

hemagglutinin (HA) of A/WSN/1933 (H1N1), sequence (P03454 18-565): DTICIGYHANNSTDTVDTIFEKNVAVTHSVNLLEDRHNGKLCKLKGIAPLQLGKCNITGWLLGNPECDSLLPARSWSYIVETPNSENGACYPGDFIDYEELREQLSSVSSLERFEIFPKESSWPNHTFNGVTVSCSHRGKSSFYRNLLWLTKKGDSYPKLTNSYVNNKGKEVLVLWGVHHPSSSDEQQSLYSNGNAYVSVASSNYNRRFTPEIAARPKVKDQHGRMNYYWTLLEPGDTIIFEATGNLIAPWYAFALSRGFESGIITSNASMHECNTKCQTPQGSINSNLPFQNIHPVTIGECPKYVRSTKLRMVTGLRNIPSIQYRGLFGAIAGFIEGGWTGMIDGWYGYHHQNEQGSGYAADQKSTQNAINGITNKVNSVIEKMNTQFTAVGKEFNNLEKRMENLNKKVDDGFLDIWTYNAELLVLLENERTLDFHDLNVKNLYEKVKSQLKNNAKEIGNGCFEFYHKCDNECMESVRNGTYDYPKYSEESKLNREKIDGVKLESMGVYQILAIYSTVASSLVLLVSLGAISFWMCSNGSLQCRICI

B1: S139\1 IgG (antibody, V domains shown)
VH: QVQLQQSGTELKKPGASVKISCKATGYTFSSYWIEWIKQRPGHGLEWIGEILPEIGMTNYNENFKGKATFTANTSSNTVYMQLSSLTSEDSAVYYCARPYDYSWFAYWGQGTLVTVSA
VL: DIVMTQSQKFMSTSVGDRVSVTCKASQNVDTNVAWYQEKPGQSPKTLIYSASNRYSGVPDRFTGSASGTDFTLTITNVQSEDLAEYFCQQYNSYPYTFGGGTKLEIK
Turning to B1, the binding result is recorded as “binds”.

B2: C05 IgG (antibody, V domains shown)
VH: QVQLQESGGGLVQPGESLRLSCVGSGSSFGESTLSYYAVSWVRQAPGKGLEWLSIINAGGGDIDYADSVEGRFTISRDNSKETLYLQMTNLRVEDTGVYYCAKHMSMQQVVSAGWERADLVGDAFDVWGQGTMVTVSS
VL: DIQLTQSPSSLSASVGDRVTLTCQASQDIRKFLNWYQQKPGKGPKLLIYDASNLQRGVPSRFSGGGSGTDFTLIISSLQPEDVGTYYCQQYDGLPFTFGGGTKVVIK
B2: the binding result is “binds”.
